Target: Keap1 labeled with Cy3 (UniProt Q14145)
Experiment: MST

Sequence of UniProt Q14145 (Q14145 whole entry): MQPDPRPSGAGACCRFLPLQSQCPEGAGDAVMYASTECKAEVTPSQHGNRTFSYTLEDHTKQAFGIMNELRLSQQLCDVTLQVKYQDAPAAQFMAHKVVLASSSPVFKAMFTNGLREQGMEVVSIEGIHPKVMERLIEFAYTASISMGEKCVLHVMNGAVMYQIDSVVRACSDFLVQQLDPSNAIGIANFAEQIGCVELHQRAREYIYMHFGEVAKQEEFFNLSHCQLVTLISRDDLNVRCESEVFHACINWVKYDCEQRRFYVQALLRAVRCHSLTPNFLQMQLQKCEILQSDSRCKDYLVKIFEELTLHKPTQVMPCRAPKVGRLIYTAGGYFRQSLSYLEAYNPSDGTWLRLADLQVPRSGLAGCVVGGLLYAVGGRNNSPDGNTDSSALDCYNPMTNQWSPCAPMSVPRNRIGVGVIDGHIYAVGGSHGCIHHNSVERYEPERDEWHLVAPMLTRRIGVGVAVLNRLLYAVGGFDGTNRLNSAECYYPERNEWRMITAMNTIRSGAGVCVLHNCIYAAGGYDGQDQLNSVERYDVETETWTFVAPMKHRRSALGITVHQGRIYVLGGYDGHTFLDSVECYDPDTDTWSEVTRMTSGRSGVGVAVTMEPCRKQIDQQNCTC

| Substance | Kd |
| --- | --- |
| MNT0, control modular nanotransporter lacking the antiKeap1 monobody fragment | 93 nM |
| free translocation domain of diphtheria toxin, DTox (from UniProt P00588 33-567) (domain or fragment) | > 1000 nM |

Source: PMC10748074
